Here are results for six sequences from the supplement of paper PMC11246515.

± gives the standard deviation of the averaged measurements. A value given as a limit tells only on which side of the number the result lay.

The nature of this data set: total protein half-life in vivo (active degradation + dilution); higher = more stable protein.
Setting [1] is: E. coli NCM3722 delta-clpP delta-lon delta-hslV, growth: N-lim chemostat, doubling time 6 h.
The mark [2] stands for this setting: E. coli NCM3722 delta-clpP, growth: N-lim chemostat, doubling time 6 h.
Setting [3] is: E. coli NCM3722 delta-hslV, growth: N-lim chemostat, doubling time 6 h.
Where [4] appears, read: E. coli NCM3722 delta-lon, growth: N-lim chemostat, doubling time 6 h.
[5] abbreviates: E. coli NCM3722 delta-smpB, growth: N-lim chemostat, doubling time 6 h.
The mark [6] stands for this setting: wild type E. coli NCM3722, growth: C-lim chemostat, doubling time 3 h.
Where [7] appears, read: wild type E. coli NCM3722, growth: C-lim chemostat, doubling time 6 h.
Where [8] appears, read: wild type E. coli NCM3722, growth: C-lim chemostat, doubling time 12 h.
Setting [9] is: wild type E. coli NCM3722, growth: N-lim chemostat, doubling time 6 h.
Where [10] appears, read: wild type E. coli NCM3722, growth: N-lim chemostat, doubling time 12 h.
Setting [11] is: wild type E. coli NCM3722, growth: P-lim chemostat, doubling time 6 h.
[12] abbreviates: wild type E. coli NCM3722, growth: P-lim chemostat, doubling time 12 h.

Regarding “MKKLRIGVVGLGGIAQKAWLPVLAAASDWTLQGAWSPTRAKALPICESWRIPYADSLSSLAASCDAVFVHSSTASHFDVVSTLLNAGVHVCVDKPLAENLRDAERLVELAARKKLTLMVGFNRRFAPLYGELKTQLATAASLRMDKHRSNSVGPHDLYFTLLDDYLHVVDTALWLSGGKASLDGGTLLTNDAGEMLFAEHHFSAGPLQITTCMHRRAGSQRETVQAVTDGALIDITDMREWREERGQGVVHKPIPGWQSTLEQRGFVGCARHFIECVQNQTVPQTAGEQAVLAQRIVDKIWRDAMSE”, the “total protein half-life in vivo” value by setting is: under setting [1], 5.47 ± 0.24 h; under setting [2], 5.38 ± 1.1 h; under setting [3], 5.7 ± 0.25 h; under setting [4], 6.04 ± 0.96 h; under setting [5], 4.86 ± 0.11 h; under setting [6], 3.12 ± 0.51 h. In addition, the “total protein half-life in vivo” value runs as follows: under setting [7], 5.88 ± 0.12 h; under setting [8], 11 ± 0.34 h; under setting [9], 4.96 ± 0.26 h; under setting [10], 9.402 ± 0.04 h; under setting [11], 6.2 ± 0.17 h; under setting [12], 12 ± 0.19 h.

Consider “MRKGCFGLVSLVLLLLVGCRSHPEIPVNDEQSLVMESSLLAAGISAEKPFLSTSDIQPSASSTLYNERQEPVTVHYRFYWYDARGLEMHPLERPRSVTIPAHSAVTLYGSANFLGAHKVRLYLYL”, for which the “total protein half-life in vivo” value runs as follows: under setting [1], 5.4 ± 0.33 h; under setting [3], 5.89 ± 0.42 h; under setting [4], 5.86 ± 0.36 h; under setting [5], 5.34 ± 0.22 h; under setting [6], 2.84 h; under setting [7], 5.52 h. The “total protein half-life in vivo” value by setting is: under setting [8], 9.893 ± 0.025 h; under setting [9], 5.33 h; under setting [10], 10.1 h; under setting [11], 5.79 h; under setting [12], 11.8 ± 0.32 h.

For the sequence “MKNKLPPFIEIYRALIATPSISATEEALDQSNADLITLLADWFKDLGFNVEVQPVPGTRNKFNMLASIGQGAGGLLLAGHTDTVPFDDGRWTRDPFTLTEHDGKLYGLGTADMKGFFAFILDALRDVDVTKLKKPLYILATADEETSMAGARYFAETTALRPDCAIIGEPTSLQPVRAHKGHISNAIRIQGQSGHSSDPARGVNAIELMHDAIGHILQLRDNLKERYHYEAFTVPYPTLNLGHIHGGDASNRICACCELHMDIRPLPGMTLNELNGLLNDALAPVSERWPGRLTVDELHPPIPGYECPPNHQLVEVVEKLLGAKTEVVNYCTEAPFIQTLCPTLVLGPGSINQAHQPDEYLETRFIKPTRELITQVIHHFCWH”, the “total protein half-life in vivo” value was 4.97 ± 0.62 h under setting [1]; 4.73 ± 0.34 h under setting [2]; 4.636 ± 0.017 h under setting [3]; 4.68 ± 0.19 h under setting [4]; 4.29 ± 0.23 h under setting [5]; 3.27 ± 0.46 h under setting [6]. In addition, the “total protein half-life in vivo” value was found to be 5.46 ± 0.24 h under setting [7]; 10.9 ± 2.2 h under setting [8]; 4.68 ± 0.058 h under setting [9]; 7.38 ± 0.21 h under setting [10]; 5.95 ± 0.067 h under setting [11]; 11 ± 0.37 h under setting [12].

In the case of “MKTLFSRLITVIACFFIFSAAWFCLWSISLHLVERPDMAVLLFPFGLRLGLMLQCPRGYWPVLLGAEWLLIYWLTQAVGLTHFPLLMIGSLLTLLPVALISRYRHQRDWRTLLLQGAALTAAALLQSLPWLWHGKESWNALLLTLTGGLTLAPICLVFWHYLANNTWLPLGPSLVSQPINWRGRHLVWYLLLFVISLWLQLGLPDELSRFTPFCLALPIIALAWHYGWQGALIATLMNAIALIASQTWRDHPVDLLLSLLVQSLTGLLLGAGIQRLRELNQSLQKELARNQHLAERLLETEESVRRDVARELHDDIGQTITAIRTQAGIVQRLAADNASVKQSGQLIEQLSLGVYDAVRRLLGRLRPRQLDDLTLEQAIRSLMREMELEGRGIVSHLEWRIDESALSENQRVTLFRVCQEGLNNIVKHADASAVTLQGWQQDERLMLVIEDDGSGLPPGSGQQGFGLTGMRERVTALGGTLHISCLHGTRVSVSLPQRYV”, the “total protein half-life in vivo” value runs as follows: under setting [1], 5.18 ± 1.4 h; under setting [2], 5.44 ± 0.69 h; under setting [3], 6.91 h; under setting [4], 6.14 ± 0.34 h; under setting [5], 5.72 ± 0.14 h; under setting [6], 2.75 ± 0.13 h. The “total protein half-life in vivo” value runs as follows: under setting [7], 4.79 ± 0.62 h; under setting [8], 10 ± 2.2 h; under setting [9], 6.09 ± 0.24 h; under setting [11], 6.19 h.

For “MKTIFTVGAVVLATCLLSGCVNEQKVNQLASNVQTLNAKIARLEQDMKALRPQIYAAKSEANRANTRLDAQDYFDCLRCLRMYAE”, the “total protein half-life in vivo” value is 7.01 h under setting [1], 5.17 h under setting [5], 6.54 h under setting [8] and more than 16 h under setting [12].

As to “MTPGGQAQIGNVDLVKQLNSAAVYRLIDQYGPISRIQIAEQSQLAPASVTKITRQLIERGLIKEVDQQASTGGRRAISIVTETRNFHAIGVRLGRHDATITLFDLSSKVLAEEHYPLPERTQQTLEHALLNAIAQFIDSYQRKLRELIAISVILPGLVDPDSGKIHYMPHIQVENWGLVEALEERFKVTCFVGHDIRSLALAEHYFGASQDCEDSILVRVHRGTGAGIISNGRIFIGRNGNVGEIGHIQVEPLGERCHCGNFGCLETIAANAAIEQRVLNLLKQGYQSRVPLDDCTIKTICKAANKGDSLASEVIEYVGRHLGKTIAIAINLFNPQKIVIAGEITEADKVLLPAIESCINTQALKAFRTNLPVVRSELDHRSAIGAFALVKRAMLNGILLQHLLEN [P0AF20]”, the “total protein half-life in vivo” value by setting is: under setting [1], 5.96 ± 0.13 h; under setting [2], 6.14 ± 0.17 h; under setting [3], 5.92 ± 0.068 h; under setting [4], 6.27 ± 0.59 h; under setting [5], 5.92 ± 1.2 h; under setting [6], 2.98 ± 0.067 h. Also, the “total protein half-life in vivo” value reads like this: under setting [7], 6.44 ± 0.24 h; under setting [8], 11.3 ± 1.7 h; under setting [9], 5.9 ± 0.28 h; under setting [10], 13 ± 0.3 h; under setting [11], 6.58 ± 0.7 h; under setting [12], 15.1 ± 0.32 h.
